According to article PMC4770209, “Genome-wide binding studies reveal DNA binding specificity mechanisms and functional interplay amongst Forkhead transcription factors”:

How the values were obtained:
[1] = molecular target: T1, FOXO3(130-271) (UniProt O43524 130-271); assay: EMSA; competition; labelled WT probe; unlabelled WT competitor 25-200x; EMSA: 75 mM KCl, room temperature 30 min, 5% PAGE in 0.25x TBE at 4 C; pull-down conditions not in material; conditions: protein: recombinant; tags: 6xHis; label: radioactive label (probe); 5' overhang 4 nt at both ends
[2] = molecular target: T2, FOXK2(228-382) (UniProt Q01167 228-382); assay: as above; conditions: protein: recombinant; tags: 6xHis; label: radioactive label (probe); 5' overhang 4 nt at both ends
[3] = molecular target: T1, FOXO3(130-271); assay: competition; unlabelled competitor 25-200x; competes equally to WT; EMSA: 75 mM KCl, room temperature 30 min, 5% PAGE in 0.25x TBE at 4 C; pull-down conditions not in material; conditions: protein: recombinant; tags: 6xHis; 5' overhang 4 nt at both ends
[4] = molecular target: T2, FOXK2(228-382); assay: as above; conditions: protein: recombinant; tags: 6xHis; 5' overhang 4 nt at both ends

T1 sequence (O43524 130-271): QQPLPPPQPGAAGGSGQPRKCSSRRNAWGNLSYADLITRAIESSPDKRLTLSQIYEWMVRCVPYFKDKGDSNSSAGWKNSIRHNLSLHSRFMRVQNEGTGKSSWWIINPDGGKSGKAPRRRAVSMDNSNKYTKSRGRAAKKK
T2 sequence (Q01167 228-382): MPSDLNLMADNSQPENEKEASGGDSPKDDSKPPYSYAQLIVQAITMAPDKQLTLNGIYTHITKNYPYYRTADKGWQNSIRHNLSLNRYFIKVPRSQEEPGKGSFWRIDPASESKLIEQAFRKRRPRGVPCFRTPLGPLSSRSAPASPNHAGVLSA

B1: CYP27C1 WT (ADS2782/ADS2783) (dsDNA)
DNA 1: CTAGAACATGTTAATGTAAACAAGGAAGCCTG
DNA 2: CTAGCAGGCTTCCTTGTTTACATTAACATGTT
B1: binds [1]; binds [2].

B2: CYP27C1mut2 (ADS3739/ADS3740) (dsDNA)
DNA 1: CTAGAACATGTTAATGTAAACAGAGAAGCCTG
DNA 2: CTAGCAGGCTTCTCTGTTTACATTAACATGTT
B2: binds [3]; binds [4].

B3: CYP27C1mut1 (ADS3737/ADS3738) (dsDNA)
DNA 1: CTAGAACATGTTAGGGTAAACAAGGAAGCCTG
DNA 2: CTAGCAGGCTTCCTTGTTTACCCTAACATGTT
B3: binds [3].
